Measured values reported in paper PMC9868604, “Structural insights into 3Fe–4S ferredoxins diversity in M. tuberculosis highlighted by a first redox complex with P450” (Frontiers in Molecular Biosciences, 2022).

Tests used:
Settings in all cases: both partners purified
[1] = target: T1, Biotinylated CYP143 with Avi-tag at the C-terminus (M. tuberculosis, UniProt P9WPL3 2-393, biotin (on the Avi-tag)); experiment: SPR; as a1, sensorgrams at 10, 15, 20, 25, 30 and 35°C; enthalpy from the slope of a Van't Hoff plot
T1 construct: also called CYP143A1; Rv1785c; not shown: Avi-tag, C-terminal, kept
T1 sequence (P9WPL3 2-393): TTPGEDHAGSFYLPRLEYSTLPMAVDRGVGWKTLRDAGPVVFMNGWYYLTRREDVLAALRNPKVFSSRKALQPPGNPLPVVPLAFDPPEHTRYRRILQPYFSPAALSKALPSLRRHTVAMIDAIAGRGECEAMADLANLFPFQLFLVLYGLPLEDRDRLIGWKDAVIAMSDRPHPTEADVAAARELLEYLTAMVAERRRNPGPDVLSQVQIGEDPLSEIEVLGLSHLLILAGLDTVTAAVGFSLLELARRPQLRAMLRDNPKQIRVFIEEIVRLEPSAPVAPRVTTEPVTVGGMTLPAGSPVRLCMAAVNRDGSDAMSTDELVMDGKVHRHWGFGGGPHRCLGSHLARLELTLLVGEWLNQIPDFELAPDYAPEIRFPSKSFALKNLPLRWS

[2] = target: T1, Biotinylated CYP143 with Avi-tag at the …; experiment: SPR
[3] = target: T2, CYP143 part of the FdxE-CYP143 fusion protein (M. tuberculosis, UniProt P9WPL3 2-393); experiment: crystal structure; FdxE fused via a linker to the N-terminus of CYP143 on one chain; 1.6 Å; crystals in .2 M sodium chloride, .1 M Bis-Tris pH 6.0, 25% PEG3350, 20°C
T2 construct: also called fusion FdxE–CYP143
T2 sequence (P9WPL3 2-393): as above

B1: FdxE (Rv1786), 3Fe-4S ferredoxin of M. tuberculosis (natural protein)
chain: MKVRLDPSRCVGHAQCYAVDPDLFPIDDSGNSILAEHEVRPEDMQLTRDGVAACPEMALILEEDDAD
notes: also called ferredoxin Rv1786; mtb_1786
dH [1]: -10.8 ± 2.15 kcal/mol | Kd [2]: 84 ± 2 nM | koff [2]: 0.0423 ± 0.0005 s⁻¹ | kon [2]: 502000 M⁻¹ s⁻¹

B2: FdxE part of the FdxE-CYP143 fusion protein (domain or fragment)
chain: KVRLDPSRCVGHAQCYAVDPDLFPIDDSGNSILAEHEVRPEDMQLTRDGVAACPEMALILEEDDAD
notes: also called fusion FdxE–CYP143; not shown: His-tag, N-terminal, kept
binding result [3]: binds
